# The DeepSol protein solubility set
# Assay: soluble on expression in E. coli; label from the status in PepcDB or PDB records
row,Sequence,soluble on expression in E. coli
1,MPPFMSGLRAVSSLLSCRNAISRKLVSRSGIPRGSFVSDQIRRFGSLSGVERCSSNWLMSNDDARVSFRRLPGSVSLLQRRHFLGCGDGEEGGGELSKIYEERRVLGYTPEQMFNVVAAVDLYHGFVPWCQRSEVLKEYPDGSFDAELEIGFKFLVESYISHVESERPKWIKTTARDTGLFDHLINLWQFKPGPIPGTCDLHFHVDFKFNSPLYRQVASMFFKEVASRLVGAFSDRCRLVYGPGVRVDENAYEQRA,soluble
2,MPPLPEKVQSHRATPIQSSGVSALPLVEYHAPGSDRLAIMISGDGGWRTLDRNLSKELQRRGISVVGWNSLRYFWKLRTPEQLGDDLSRVIADYQRRWGAHQVILIGYSFGADVMPFAYAHLMPTQRNGVDFISLLALGRKADFKARIFGWLGWGEHGTRDVLTALGALDLHRVQCIYGQNDKDAVCPELRERIFDVVMRPGGHHFDGDTVKLADAILQGWQRRIELREPRNADSPR,not soluble
3,MPPVVPCHCTQCRKWSGHFWAATSVAMADFRLVRDEGLRWFRASDTASRGFCALCGSSLSWKPDGRDRMSFSPGAVDGPTGLATGHHIFMDEAGDYCRVSDGTPHYPGDDEA,not soluble
4,MPQEKMARLYNLNYTIASQVNPHVVPFMQSDASRYRKDILSWPQRILRRQGKVISLGIMDFTRERLGNVPPVRRLLDHGYGIVGQRYYGDVNIIAPFNLRQYAYMLQNPRPHLFKLLQQQGERATWPKISAIETHARIGKTIQHCIEVLDYQKNRYIQAEKASALEHHHHHH,not soluble
5,MPQYKGSREVISIHVGQAGVQIGNACWELFCLEHGIQPDGYHVEDDTYDEETETINTFFAETAGGKHVPRCLFVDLEPTVVDEVRTGTYRSLFHPEQLLSGKEDAANCYARGRYTIGREMIDVVMDRVKRLAENCNGLQGFVIFHSFGGGTGSGFLSLLMERLSTEYGKKPKLEFAIYPAPQVSTSMVEPYNSILMTHTTLEHSDCTFMVDNEAIYDICRRNLDLARPTYTNLNRLVAQIISSITASLRFEGALNVDLTEFQTNLVPYPRIHFPLVTYAPLVSAERASHEQNTVSDMTHACFEPGYQMVKCDPRRGKYMAVCLLYRGDVVPKDINSAIAAVKTKRTVQFVEWCPTGFKVGINYQPPTVVPGGDLGKQTRSVCMISNTTAIAEAWARLDHKFDLMYAKRAFVHWYVGEGMEEGEFSEAREDMAALEKDYEEIGEDELPDDIDDQSYRGRSSGSRY,not soluble
6,MPRALNDRSSALTAQNLIALPERFGCPVWAYDGDIIAERINQLRHFDVIRFAQKACSNIHILRLMREQGVKVDSVSLGEIERALHAGYQPGQEPAEIVFTADLLDQATLLRVTELNIPVNAGSIDMLDQLGQQAPGHPVWLRVNPGFGHGHSQKTNTGGENSKHGIWHEELPRALKKIEHYGLTLVGIHMHIGSGVDYQHLEQVCDAMVQQVITLGHDISAISAGGGLSIPYQFGDDVIDTEHYYGLWNSARERIAAHLGHPVSLEIEPGRFLVAESGVLIAQVRAVKDMGRRHYVLVDAGFNDLMRPAMYGSYHHISLLPADGRDLTSAPLIDTVVAGPLCESGDVFTQQEGGGVETLALPAAVIGDYLVFHDTGAYGASMSSNYNSRPLLPEVLFEKGQPRLIRRRQTIEELIDLERV,not soluble
7,MPSKTFLLTHTFKDISKLGEGESYYSDIEIRYNIPWSIQVFKNESFLGLLLNCEKEELLEKKKWSLQVKFTMKLVAVSGKFFQRTVKNEFQNPEGHGMDKFISWENMLRDYVNNDSIVIEINADIVSSSGFFKHKYSPCSQSYSGKSFVLKHNFKNRRFVEAERCFSDIEEHYNVPWRLRIQKYKKGFLGIHLLCEKETCDGRSWSIQCDYELQLISSKGKCYSRHSTFNFEKPGGNYQEVEFINWKVMEEEYMDSDSICVEAHVKICKTQELPCNILSTHRKFVLSHTVRNISSINGGNVYFTDIETRFNVPWKLSFVRQSGFIELYLRCEKKQCLSRTWSIEAEFTLKLVSPHGRSLSLRKIYSFEKSIGNGYSKVMRWDEMKDKYVVDNSIIIEAHVKILNMTGIESETTIKKTSGFTIPVGDMEYSMEKWMEMAFDH,not soluble
8,MPSLVIQDGGASIIRAVRPEEFAPQAPGKLLAIGRGVYAFLPDPLPPRLEWSLRLIALLDEARGALGELAGLLRQLPNPYLFIRPFIQKEAVLSSRIEGTQAGLLDVYALEAQVPLFPSPKLREDAQEVLNYIRALERGRELLQEIPLSLRLLKEVHAVLLRGVRGGGRAPGEFRRAQNWIGPPGSSLEEARYVPPPPGPMLEALDALERFWHSDHGLPPLVEIALVHYQFEAIHPFLDGNGRMGRLLITLMLLERGLLPEPALYLSAYFERHRTLYYDLLLGVSQRGAWEDWLAFFLEGVRTEAKDVAERARRLLDLWREWRERYGRKGGSAHILGLLDLLFERPVLTVPLVKDRLGITHAWANRLVQRLEEDGILTPVSERKRNRLYAAKEILEILEEARNA,soluble
9,MPSTSMIEDRSEIERRRFEYLDHPADIQLHSWGSTMEEAFEACLVSMFGYMTDLAKVDEMYEFYWKASGDSLDGLLFQFLDEALNSFHAEPCFVAKRVEILRFDKKKFEIEFRGWGESFDTSKHETEADIKSPTYSNMQINEKPERCDIYVIVDI,not soluble
10,MPSYKLTYFDACGFGESARMLFHLGGVPYEDVRLPTINAVPGFQSDEFSALKDKTPFGRFTVLSIDGFDLAQSSAIHRYLARKFGYAGKTPEDEAFADSIVDQFNEYYASLHPYRDAVKTGKTMEEVKQIHDKVYIPAKNLMFKILTRILKENKSGFLVGDGLTWADLVVADHLYTLTNLKELDPEDPIHLTLRKFQEKIFNLTELKDYIETRPVTLV,not soluble
11,MPTLKVAYIPEHFSTPLFFAQQQGYYKAHDLSIEFVKVPEGSGRLINLLNSNEVDIAIGLTEAFIADIAKGNENIHVLDTYVKSPLLWAVSTGSNRDDVTDAKQLKRIGVSRIGSGSYVMSFVLAHQLGVPSFDQFQVLSNFKNLRDSVNLKDGVEGSDAFMWEYFTSKKYYDNHEIKQIDQIYTPWSSWVVATSSDSLQAKSDVIKNFIDAVNQGIQYYNEHVDEAIEYISSNLDYSAEDAKEWTKTVEFNSRIGKTPLDWDTIVVKTKDTLKLAGVLAESDDVILKRLNSNVKKTNL,soluble
12,MPTVNVIGAGLAGSEAAWQIAQAGVDVNLYEMRPVKMTPAHHTSNFAELVCTNSLRANQITNAVGLLKEEMRQLHSIIIQSADATAVPAGGALAVDREPFSELVTQKLTSNSHIHVVNEELSAFPDGITVVATGPLTAPGLAQAIVDLNGEAGLSFFDAAAPILDANTINEDIVYKKSRYDRGEAAYLNCPMTKDEFLAFYQALVSAEVAEGHDFEKMTVFEGCMPIEVMAKRGIKTMLFGPLKPVGLEDPRTGKEPYAVVQLRQDNAAASLYNMVGFQTHLKWGEQKRVFRLIPGLENVQIVRYGVMHRNTFMKSPVVLEPTYASKRRPDLFFAGQMTGVEGYVESAASGLIAGINATRMALGETPVIFPETTAMGSMAHYITHTSAHHFQPMNANFGIMPALTVKIRNKKERNQQLADRALKDLATFQAGMNRVEQVLEHHHHHH,soluble
13,MPVAISLPTSSTSHFFPRRRGHANHRYQRFSGAQSSTEDPYIRKNQTGVIIIGAGLAGLAAANQLTSKRIPFLLLEASDGVGGRVRTDIVDGFFLDRGFQIFITAYPEAKKLLDYEALDLQRFYAGAKVFYGGKFHTVADPLRHFWDSVASLANPIGSVVDKGLIALTRARVLIKSDEEILTAADEVPTIDLLRKIGFSETILDRFFRPFFGGIFFDRDLETTSKLFDFVFRCLALGENTLPAMGIGEISNQLAAKLPAKSVLLNTRVASIEYPNGSGSDPPSVRLQDGSVMKAELGVIIAVEQPEVNKLLDGIRDPVITKPARSTICLYFTAEPNQIPVQDPVLFLNGSNSGIINNMFFATNVARTYAPPGKALVSVSLIGLFEDRTDDDLAAEVLRELSGWFGESPVMSWKHLKTYRIQFAQPNQCPPTDLVKSPRVGSGLYLSGDYMTSATFDGALVSGRRAVEVLLRETGLIK,soluble
14,MPVAIVTGASSGIGRAAALLLARNNYKLSLTGRNVAALNELAGQIVSAGSDKNDVLVTAVELASEEAPKTIVDATVQKFGRIDTLINSAGILRAGPVLDSGIEVYDELMNVNVRSLIRLTRAALPHIITTKGTVVNVSSINGPCPFPNVTYYCMSKSAVDQFTKCLALEMAPNGVRVNAVCPGVTVTNLHRTSGQDETTYSAFLERSKTTHALGRPGDANEVAEAIYFLASEKSSFTTGELLRVDGGRGIMHPR,soluble
15,MPVDTKTVLVVRHGTAGRRSRYKGDDRKRPLDKRGRAQAEALVAQLMAFGATTLYAADRVRCHQTIEPLAQELDQLIHNEPLLTEEAYAADHKAARKRLLEIAGRPGNPVICTQGKVIPGLIEWWCERAKVRPETTGNRKGSTWVLSLSDGELVGADYLSPPDEKLEHHHHHH,not soluble
16,MPVEITVKELLEAGVHFGHERKRWNPKFARYIYAERNGIHIIDLQKTMEELERTFRFIEDLAMRGGTILFVGTKKQAQDIVRMEAERAGMPYVNQRWLGGMLTNFKTISQRVHRLEELEALFASPEIEERPKKEQVRLKHELERLQKYLSGFRLLKRLPDAIFVVDPTKEAIAVREARKLFIPVIALADTDSDPDLVDYIIPGNDDAIRSIQLILSRAVDLIIQARGGVVEPSPSYALVQEAEATETPEGESEVEA,soluble
17,MPVFKRYMRSPRLKAKHVMSTPPVTIEVGRSIAEAARLMAERGVGSLIVVDKQGLVKGILTERDIINSLASGKACAEGKVEDIMSRNPIVASPDDDLEIIIEKMRDMNIRHIPVIDEDGRPLGMISVRDIIDLGVSALKLFVE,soluble
18,MPVFRRHASQNCASIPPMMLFKRPDTETLYFALVNKDPAYEGVAYVCVTSTKIFCRFTCTARKPKIENCRFRETITECLEAGFRPCKRCKPMLSYGTPDGTVTALLTALENEPARRWREEDVVALGHDPSTVRRSFKRRFGMSFLEIARLRRVGDAAESLASGEAVIGAQIDAGYESGSGFRSAINQLFGTSPAAMKGRGFLKGDWIDTPIGPMLAVADDHALHLLEFADRPALPAELKRLKARTGADMVLGRTAVTGQIAAELAAYFAGRSGSFETRLAGHGTPFERDVWRNLREIPAGEIVSYSSLATAMERPTAVRAVARANGANQLAIVVPCHRVLGADGSLTGYGGGLWRKKWLIEHERRMARGQMLGMPLASLEHHHHHH,not soluble
19,MPVGRKEQIVDCRAVMGLGEGGGLAQRGTFAEGLRNDVVVVAMSPGRRHITKPVCEITYGIREAGIQTSVLVLDAGGGIPSDAPQGSLGSTFGLKPEEAKQVNRHKLCVIHFGNVKSHIIYKARLFLKYVDIPTIIVCQTPVDMEDFAAIGIKTKNVMPLESKTEGKIVEIITGVIRGESAPQKKIDEIIESIKKHLGLEHHHHHH,not soluble
20,MPVLGQIWELSDSQKVGSLDKRGAFVAFKLVAAAQQGKPVANSSLYDSSLQPPRFAPPVPPANMQHHFQPSFPSVGRAPPVPPPPHPSHPYSISSQQSSPAHPSSAFPPQWPITPTDQAKYDSIFQSLNPVNGKLSGAHVRPVLMNSGLDAHALARIWELSDQDKDGNLDRIEMSVALHLVYRSLQSDPVPAQLPPNLIHPSKAMYAHSSPNFAAPPHPPRPMMGSRAGSVTSLDDVNMSQSYSATMPRAYPPQPGRAYSAQAHVNGSRTSGASTPISASHSIHSFPAGEWPINTGDYADQFAQTDTNKDGLVDGMDMRAPMMTTGLSAQILAHVWALADIKKCGQLNLEQFALTMHLLDMAKRGESIPSELPLHLIPPSFRPPTEPSALHHPAQSVSTPQLPEATSMEIKEALEGENEEMKQLAESIQSMLVERKTAEEAVLQLEADMTIKNSSIKNLQVELATLESTVKQLERQKGEATRRLADYDTQIEQLESACKAQKETKEDTEKRMQQIDEDAKNAEDCKANDEKEMEELKKEIEMLDNQFKTVRGEIVKETSQREQKVAELTTLERKEARDQIQMEKLDAAIENTTKLTEQVSDAVEKSEEEMVQILRSQQRLLSTVIDQSLLSDDTVYGETAGTSSQNHVQQPPDPFASARANPAADPFAQVDQFGSSGHFDAAFPTDPFAQGGFPSDSGFAQSAPAKPAPPRPAPPKSARETPVNDPFAPSQGQSTQPAGFADFADFGSAFN,not soluble
